Assay results: article PMC6315291

Molecular target: Recombinant human Pentraxin 3 (PTX3) (human) (UniProt P26022)
Assay: ELISA

Sequence of UniProt P26022 (P26022 18-381): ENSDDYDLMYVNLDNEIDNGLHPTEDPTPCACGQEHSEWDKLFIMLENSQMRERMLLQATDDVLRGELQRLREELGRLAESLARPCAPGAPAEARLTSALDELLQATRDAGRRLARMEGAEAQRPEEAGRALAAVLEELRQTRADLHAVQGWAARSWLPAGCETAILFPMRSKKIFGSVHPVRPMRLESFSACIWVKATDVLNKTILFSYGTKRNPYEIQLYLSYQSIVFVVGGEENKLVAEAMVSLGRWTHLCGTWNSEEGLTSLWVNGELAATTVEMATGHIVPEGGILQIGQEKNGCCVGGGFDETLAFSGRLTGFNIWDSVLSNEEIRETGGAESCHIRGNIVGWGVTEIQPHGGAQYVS

Human TSP1 construct E123CaG-1 (type II repeats plus type III repeats and globular C-terminus) (domain or fragment)
increase of OD 450 nm over control buffer (% fold increase): 64
